One assay deals with human EphrinB3. The assay is described as follows: Octet binding kinetics, EphB to immobilized human EphrinB3. Particulars: for Kd: 2:1 fit. Here is the method: (§1) Studies were conducted to confirm that A20 chemicals can effectively target the human Eph/Ephrin proteins. Octet system was used to first characterize the biophysical interactions of the human B class Eph and Ephrin proteins, and then was tested to assess how A20 may disrupt the interactions. Since the human and rodent proteins are highly conserved, and essentially identical, with EphB2 sharing 99.5% identity between human and mouse, with only 5 of ~1,000 amino acids different, any species-specific differences were not anticipated. Therefore, commercially available human EphrinB1-Fc (EB1), EphrinB2-Fc (EB2), and EphrinB3-Fc (EB3) ectodomain proteins were sparsely immobilized onto biosensors and then exposed to 50 nM of soluble human EphB1-His, EphB2-His, and EphB4-His ectodomains for 800 sec association and 1,000 sec dissociation steps with a total of nine different interactions analyzed. In the absence of A20 chemical, the immobilized human EphrinB proteins bound to their appropriate human EphB target proteins; with EphrinB1 only bound EphB1 and EphB2, EphrinB2 bound all three EphB1, EphB2, and EphB4, and EphrinB3 only bound EphB1 and EphB2 (FIG. 19A-19B).
(§2) While the binding kinetics described above for the various human EphB-EphrinB interactions are complicated and show clear differences, all are extremely high affinity interactions with KD values in the low nanomolar to picomolar range (Table 2). Octet software allows for detailed biophysical analysis of the sensorgram data and first attempts to fit the information to equations that follow rather standard binding characteristics, most typified by either a classic 1:1 binding type interaction (like formation of a simple receptor-ligand dimer) or something more complex/heterologous involving 2:1 binding type interactions (like Eph-Ephrin dimer and tetramer). Based on the information contained in the sensorgram run under analysis, the Octet software will attempt to draw curves to fit the data to 1:1 and 2:1 binding equations. […] The resulting curve fits are not always perfect, especially for such complex interactions as the Eph/Ephrin system. As such, while the EphB2-EB2 and EphB4-EB2 data fit a 2:1 curve fairly well, the EphB1-EB2 interaction fits neither 1:1 or 2:1 well and the R2 values of this interaction reflects this. The interaction of EB1 with its two target proteins is more divergent. […] The EphB1-EB3 and EphB2-EB3 interactions are like that for EphB1-EB1, clear 1:1 curve fits with a slow gradual on rate of association followed by no off rate in dissociation.
(In BLI a coated tip is dipped into the sample, and binding shifts an interference pattern.)

A further assay deals with human EphrinB1. Put plainly: Octet binding kinetics, EphB to immobilized human EphrinB1. The method, then: as §1, §2
In another assay the target is human EphrinB2. Put plainly: Octet binding kinetics, EphB to immobilized human EphrinB2. The method, then:
as §1, §2

The mark [1] stands for this setting: 2:1 fit, in parentheses R2 value, read-out: KD2.
Setting [2] is: in parentheses R2 value, read-out: KD.
Where [3] appears, read: in parentheses R2 value, read-out: KD2.

Where two headings read alike, the source gives them in different places.

B1: EphB4: soluble human EphB4-His ectodomain (protein, UniProt P54760 16-539, looked up)
extracellular domain: LEETLLNTKLETADLKWVTFPQVDGQWEELSGLDEEQHSVRTYEVCDVQRAPGQAHWLRTGWVPRRGAVHVYATLRFTMLECLSLPRAGRSCKETFTVFYYESDADTATALTPAWMENPYIKVDTVAAEHLTRKRPGAEATGKVNVKTLRLGPLSKAGFYLAFQDQGACMALLSLHLFYKKCAQLTVNLTRFPETVPRELVVPVAGSCVVDAVPAPGPSPSLYCREDGQWAEQPVTGCSCAPGFEAAEGNTKCRACAQGTFKPLSGEGSCQPCPANSHSNTIGSAVCQCRVGYFRARTDPRGAPCTTPPSAPRSVVSRLNGSSLHLEWSAPLESGGREDLTYALRCRECRPGGSCAPCGGDLTFDPGPRDLVEPWVVVRGLRPDFTYTFEVTALNGVSSLATGPVPFEPVNVTTDREVPPAVSDIRVTRSSPSSLSLAWAVPRAPSGAVLDYEVKYHEKGAEGPSSVRFLKTSENRAELRGLKRGASYLVQVRARSEAGYGPFGQEHHSQTQLDESEGWREQLA
modifications: extracellular domain His tag
notes: soluble human EphB4-His ectodomain
As for B1, the “KD (binding in words)” value on human EphrinB3 and at human EphrinB1 was “no binding” throughout. Further, the Kd is 42 nM on human EphrinB2 (setting [1]); 0.35 nM on human EphrinB2 (2:1 fit, read-out: KD1); 1.8 nM on human EphrinB2 (setting [2]).

B2: EphB2: soluble human EphB2-His ectodomain (protein, UniProt P29323 19-543, looked up)
extracellular domain: VEETLMDSTTATAELGWMVHPPSGWEEVSGYDENMNTIRTYQVCNVFESSQNNWLRTKFIRRRGAHRIHVEMKFSVRDCSSIPSVPGSCKETFNLYYYEADFDSATKTFPNWMENPWVKVDTIAADESFSQVDLGGRVMKINTEVRSFGPVSRSGFYLAFQDYGGCMSLIAVRVFYRKCPRIIQNGAIFQETLSGAESTSLVAARGSCIANAEEVDVPIKLYCNGDGEWLVPIGRCMCKAGFEAVENGTVCRGCPSGTFKANQGDEACTHCPINSRTTSEGATNCVCRNGYYRADLDPLDMPCTTIPSAPQAVISSVNETSLMLEWTPPRDSGGREDLVYNIICKSCGSGRGACTRCGDNVQYAPRQLGLTEPRIYISDLLAHTQYTFEIQAVNGVTDQSPFSPQFASVNITTNQAAPSAVSIMHQVSRTVDSITLSWSQPDQPNGVILDYELQYYEKELSEYNATAIKSPTNTVTVQGLKAGAIYVFQVRARTVAGYGRYSGKMYFQTMTEAEYQTSIQEKLPL
modifications: extracellular domain His tag
notes: soluble human EphB2-His ectodomain
Take B2: the Kd is 1.8 pM at human EphrinB3 (setting [3]); 1.8 pM at human EphrinB3 (read-out: KD1); 40 nM on human EphrinB1 (setting [1]); 41 nM at human EphrinB1 (2:1 fit, read-out: KD1); 8.57 nM at human EphrinB1 (setting [2]); 16.8 nM on human EphrinB2 (setting [1]). Moreover, the Kd stood at 5.9 nM on human EphrinB2 (2:1 fit, read-out: KD1) and 4.84 nM on human EphrinB2 (setting [2]).

B3: EphB1: soluble human EphB1-His ectodomain (protein, UniProt P54762 18-540, looked up)
extracellular domain: MEETLMDTRTATAELGWTANPASGWEEVSGYDENLNTIRTYQVCNVFEPNQNNWLLTTFINRRGAHRIYTEMRFTVRDCSSLPNVPGSCKETFNLYYYETDSVIATKKSAFWSEAPYLKVDTIAADESFSQVDFGGRLMKVNTEVRSFGPLTRNGFYLAFQDYGACMSLLSVRVFFKKCPSIVQNFAVFPETMTGAESTSLVIARGTCIPNAEEVDVPIKLYCNGDGEWMVPIGRCTCKPGYEPENSVACKACPAGTFKASQEAEGCSHCPSNSRSPAEASPICTCRTGYYRADFDPPEVACTSVPSGPRNVISIVNETSIILEWHPPRETGGRDDVTYNIICKKCRADRRSCSRCDDNVEFVPRQLGLTECRVSISSLWAHTPYTFDIQAINGVSSKSPFPPQHVSVNITTNQAAPSTVPIMHQVSATMRSITLSWPQPEQPNGIILDYEIRYYEKEHNEFNSSMARSQTNTARIDGLRPGMVYVVQVRARTVAGYGKFSGKMCFQTLTDDDYKSELREQLP
modifications: extracellular domain His tag
notes: soluble human EphB1-His ectodomain
Take B3: the Kd on human EphrinB3 (setting [3]) was 1.2 pM; on human EphrinB3 (read-out: KD1), 1.4 pM; on human EphrinB2 (setting [1]), 27 nM; on human EphrinB2 (2:1 fit, read-out: KD1), less than 0.001 nM; on human EphrinB2 (setting [2]) it was 4.3 nM.

(Values after US20260374739A1, “SMALL MOLECULAR WEIGHT CHEMICAL COMPOUND TO ANTAGONIZE EPH-EPHRIN TETRAMERIZATION AND INHIBIT BIDIRECTIONAL SIGNALING” (THE BOARD OF REGENTS OF THE UNIVERSITY OF TEXAS SYSTEM, priority 2022, published 2026).)
